From patent US20250041437A1 (SUN PHARMA ADVANCED RESEARCH, published 2025)
Substitutions are numbered along the chain they refer to.

B1: HM2 LM2 variant of humanized anti-MUC1 antibody SP66 (antibody, V domains shown)
VH: EIQLVQSGAEVKKPGSSVKVSCKVTGHSITRGSSWHWMRQAPGQGLEWIGYIHYGGGTSYNPSLKSRITITRDTSTNTAYMELSSLRSEDTAFYFCARYSYDITYRWFFDVWGQGTLVTVSS
VL: DIQMTQSPSTLSASVGDRVTITCRASQNIGTSIHWYQQKPGKAPKLLIKRASESISGVPSRFSGSGSGTEFTLTISSLQPDDFATYYCQQNNNWPLTFGQGTKVEVK
notes: Humanized IgG expressed in CHO cells; only variable domains tied to the variant
B2: HM2 LM1 variant of humanized anti-MUC1 antibody SP66 (antibody, V domains shown)
VH: B1 VH
VL: B1 VL with Y36F
notes: as for B1
B3: HM4 LM3 variant of humanized anti-MUC1 antibody SP66 (antibody, V domains shown)
VH: B1 VH with I68A, I70L, A79F
VL: B1 VL with R50Y
notes: as for B1
B4: HM5 LM2 variant of humanized anti-MUC1 antibody SP66 (antibody, V domains shown)
VH: B1 VH with A79F
VL: B1 VL
notes: as for B1
B5: humanized IgG1 anti-MUC1-SEA mAb (HM5 LM4) (antibody, V domains shown)
VH: B1 VH with A79F
VL: DIQMTQSPSTLSASVGDRVTITCRASQNIGTSIHWYQQKPGKAPKLLIKYASESISGVPSRFSGSGSGTEFTLTISSLQPDDFATYYCQQNNNWPLTFGQGTKVEIKR
notes: also called Humanized anti-MUC1 SEA IgG1; humanized IgG anti-MUC1-SEA mAb
B6: HM3 LM2 variant of humanized anti-MUC1 antibody SP66 (antibody, V domains shown)
VH: B1 VH with I68A, I70L
VL: B1 VL
notes: as for B1
B7: HM4 LM2 variant of humanized anti-MUC1 antibody SP66 (antibody, V domains shown)
VH: B1 VH with I68A, I70L, A79F
VL: B1 VL
notes: as for B1
B8: HM5 LM3 variant of humanized anti-MUC1 antibody SP66 (antibody, V domains shown)
VH: B1 VH with A79F
VL: B1 VL with R50Y
notes: as for B1

What follows are binders tested against T1, human MUC1 on cells (DA3-TM transfectants and human cancer cell lines SKOV3, COLO357, HT29 and others) (human, UniProt P15941 24-1255) (assay: flow cytometry on DA3-TM cells; table row 3 of 5, about 3.7 nM by the matching point in FIG. 3A).
T1 construct: also called MUC1-SEA; surface MUC1
T1 sequence (P15941 24-1255 limits assumed): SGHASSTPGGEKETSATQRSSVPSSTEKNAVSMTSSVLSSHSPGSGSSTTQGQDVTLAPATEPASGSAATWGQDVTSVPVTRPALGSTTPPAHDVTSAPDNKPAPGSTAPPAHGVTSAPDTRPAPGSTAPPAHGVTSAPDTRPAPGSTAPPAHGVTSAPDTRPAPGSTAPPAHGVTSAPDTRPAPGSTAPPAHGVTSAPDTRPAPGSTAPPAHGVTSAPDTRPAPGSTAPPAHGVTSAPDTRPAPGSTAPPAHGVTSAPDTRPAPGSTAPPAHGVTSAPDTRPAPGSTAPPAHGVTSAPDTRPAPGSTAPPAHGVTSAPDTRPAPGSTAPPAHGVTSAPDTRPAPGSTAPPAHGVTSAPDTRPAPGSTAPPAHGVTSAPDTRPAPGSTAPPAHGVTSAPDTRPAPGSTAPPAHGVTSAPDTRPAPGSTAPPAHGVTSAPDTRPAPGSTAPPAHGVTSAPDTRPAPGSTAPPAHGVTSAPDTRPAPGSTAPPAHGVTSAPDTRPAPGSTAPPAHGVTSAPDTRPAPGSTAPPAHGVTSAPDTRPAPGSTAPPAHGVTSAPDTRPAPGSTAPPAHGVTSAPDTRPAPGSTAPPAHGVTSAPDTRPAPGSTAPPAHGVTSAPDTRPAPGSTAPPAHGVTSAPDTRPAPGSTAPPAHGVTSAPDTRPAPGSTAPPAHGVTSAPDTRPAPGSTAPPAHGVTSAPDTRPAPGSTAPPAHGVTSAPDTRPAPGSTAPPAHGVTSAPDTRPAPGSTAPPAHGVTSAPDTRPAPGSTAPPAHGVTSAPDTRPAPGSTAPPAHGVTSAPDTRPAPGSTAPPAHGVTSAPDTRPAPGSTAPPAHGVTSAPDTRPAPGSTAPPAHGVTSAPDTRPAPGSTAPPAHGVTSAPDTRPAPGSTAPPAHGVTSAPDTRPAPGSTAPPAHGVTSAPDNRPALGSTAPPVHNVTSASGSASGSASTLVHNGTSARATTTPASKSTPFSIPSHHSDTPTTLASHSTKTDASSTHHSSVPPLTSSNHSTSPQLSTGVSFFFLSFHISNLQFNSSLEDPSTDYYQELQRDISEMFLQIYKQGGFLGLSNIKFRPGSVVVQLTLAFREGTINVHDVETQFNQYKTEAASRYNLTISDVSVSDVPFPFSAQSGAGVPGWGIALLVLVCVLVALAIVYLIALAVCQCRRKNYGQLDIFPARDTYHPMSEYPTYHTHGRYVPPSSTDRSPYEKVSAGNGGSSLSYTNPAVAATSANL

| Binder | Geometric Mean : FL6-A |
| --- | --- |
| B1 | 11800 |
| B2 | 4900 |
| B3 | 17600 |
| B4 | 21300 |

The binders below were run against T1, human MUC1 on cells (DA3-TM …) (assay: flow cytometry on DA3-TM cells; table row 4 of 5, about 1.2 nM by the matching point in FIG. 3A).

| Binder | Geometric Mean : FL6-A |
| --- | --- |
| B1 | 6400 |
| B2 | 1870 |
| B3 | 9700 |
| B4 | 14600 |

What follows are binders tested against T1, human MUC1 on cells (DA3-TM …) (assay: flow cytometry on SKOV-3 cells, geometric mean against concentration).

| Binder | EC50 (read off the curve) [nM] |
| --- | --- |
| B5 | ~3 |

These binders were tested against T1, human MUC1 on cells (DA3-TM …) (assay: flow cytometry on DA3-TM cells; table row 5 of 5, about 0.4 nM by the matching point in FIG. 3A).

| Binder | Geometric Mean : FL6-A |
| --- | --- |
| B1 | 2860 |
| B2 | 727 |
| B3 | 5320 |
| B4 | 7990 |

These binders were tested against T1, human MUC1 on cells (DA3-TM …) (assay: flow cytometry on DA3-TM cells; table row 2 of 5, about 11 nM by the matching point in FIG. 3A).

| Binder | Geometric Mean : FL6-A |
| --- | --- |
| B1 | 15000 |
| B2 | 10000 |
| B3 | 22300 |
| B4 | 23700 |

The binders below were run against T1, human MUC1 on cells (DA3-TM …) (assay: flow cytometry, dose-dependent binding on MUC1 positive DA3-TM cells).

| Binder | Kd [nM] |
| --- | --- |
| B5 | 1 |
| B1 | 3.2 |
| B6 | 3.7 |
| B2 | 14.5 |
| B7 | 2.1 |
| B3 | 1.5 |
| B8 | 0.9 |
| B4 | 1.4 |
